Experimental data reported in patent US9260500B2, “Peptide and use thereof” (Takeda Pharmaceutical Company Limited, priority 2009, dated 2016).
Starred links: 1 amine or outer side, 2 acyl side, 3 side chain; linkers in the order of their positions; H or OH if unused. Non-standard residues stand in square brackets, D forms with d. Ala(piperidin-4-yl) = O=C([C@H](CC1CCN([*:3])CC1)N[*:1])[*:2]; Phe(2,6-Me2) = Cc1cccc(C)c1C[C@H](N)C(=O)O; 2Nal = N[C@@H](Cc1ccc2ccccc2c1)C(=O)O; Arg(Me) = CNC(=N)NCCC[C@H](N)C(=O)O; tBuAla = CC(C)(C)C[C@H](N)C(=O)O; 4Pal = N[C@@H](Cc1ccncc1)C(=O)O; dHyp = O=C(O)[C@H]1C[C@H](O)CN1; Cha = N[C@@H](CC1CCCCC1)C(=O)O; dIva = CC[C@@](C)(N)C(=O)O; Iva = CC[C@](C)(N)C(=O)O; Aib = CC(C)(N)C(=O)O

How the values were obtained:
human Y2 receptor [1] = molecular target: T1, human Y2 receptor (Homo sapiens, UniProt P49146); assay: Receptor Binding Assay (RBA) for Human Y2, [125I]-PYY displacement on hY2R/CHO membrane fraction; details: IC50 of test compound/IC50 of PYY(3-36) (PYY(3-36) taken as 1)
T1 construct: expressed in transfected cells; membrane fraction
T1 sequence (P49146 1-381): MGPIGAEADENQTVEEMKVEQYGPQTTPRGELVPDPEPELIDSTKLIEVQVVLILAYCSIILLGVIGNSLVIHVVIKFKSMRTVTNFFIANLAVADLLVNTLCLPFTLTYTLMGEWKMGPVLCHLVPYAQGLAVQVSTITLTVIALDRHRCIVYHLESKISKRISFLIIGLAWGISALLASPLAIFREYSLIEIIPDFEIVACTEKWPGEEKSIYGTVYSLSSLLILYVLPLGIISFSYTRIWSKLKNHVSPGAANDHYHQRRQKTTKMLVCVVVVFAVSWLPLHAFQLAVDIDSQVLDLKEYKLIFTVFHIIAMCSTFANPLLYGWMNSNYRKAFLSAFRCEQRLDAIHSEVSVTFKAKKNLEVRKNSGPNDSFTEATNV
In short: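 Read-out is [125I]-PYY displacement from membranes of CHO/dhfr− cells stably transfected with human Y2R. Membranes were obtained by disrupting cells in a buffer of 10 mM NaHCO3, 5 mM EDTA and protease inhibitors.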

human Y2 receptor [2] = molecular target: T1, human Y2 receptor; assay: Human Y2 Receptor G Protein Binding Assay (GBA), [35S]GTPγS; assay type: biochemical; details: EC50 of test compound/EC50 of PYY(3-36) (PYY3-36 taken as 1), hY2R/CHO membrane fraction
In short: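 Agonism measured as [35S]GTPγS binding, read by GF/C filtration and scintillation counting after 120 min at room temperature, using human Y2 membranes at 1 μg protein/mL in pH 7.4 Tris/MgCl2/NaCl/GDP buffer. Compound serially diluted 100 μM–1 nM; EC50 normalized to PYY(3-36) (ratio = compound/PYY).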

male C57EL/6J mice = assay: 3-Days Continuous Subcutaneous Administration Test-1 (food intake suppressing activity); assay type: in vivo, mouse; details: 0.03 mg/kg/day, subcutaneous Alzet pump, food consumption over 3 days; relative to food intake suppression rate for PYY(3-36) (1 mg/kg/day) taken as 100%
In short: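 Male […] mice, 12-13 weeks, received compound at 0.03 mg/kg/day by subcutaneous osmotic pump (50% DMSO vehicle), housed singly with free food access. Food consumed over 3 days measured; suppression expressed relative to PYY(3-36) (1 mg/kg/day) set as 100%.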

Substance: Ac-[D-Pro24, Pya(4)26, Cha27,36, Aib28,31, Ala(4-pip)30]-PYY(23-36) (Ac-S[dP]R[4Pal][Cha][Aib]N[Ala(piperidin-4-yl)][Aib]TRQR[Cha]-NH2; SMILES CC(=O)N[C@@H](CO)C(=O)N1CCC[C@@H]1C(=O)N[C@@H](CCCNC(=N)N)C(=O)N[C@@H](Cc1ccncc1)C(=O)N[C@@H](CC1CCCCC1)C(=O)NC(C)(C)C(=O)N[C@@H](CC(N)=O)C(=O)N[C@@H](CC1CCNCC1)C(=O)NC(C)(C)C(=O)N[C@H](C(=O)N[C@@H](CCCNC(=N)N)C(=O)N[C@@H](CCC(N)=O)C(=O)N[C@@H](CCCNC(=N)N)C(=O)N[C@@H](CC1CCCCC1)C(N)=O)[C@@H](C)O) [compound No. 313]
- RBA IC50 Ratio (human Y2 receptor [1]): 0.72
- GBA EC50 Ratio (human Y2 receptor [2]): 0.8
- food intake suppression rate (%) (male C57EL/6J mice): 23%

Substance: Ac-[D-Pro24, Pya(4)26, Cha27,36, Aib28,31, Arg(Me)30]-PYY(23-36) (Ac-S[dP]R[4Pal][Cha][Aib]N[Arg(Me)][Aib]TRQR[Cha]-NH2) [compound No. 314]
- RBA IC50 Ratio (human Y2 receptor [1]): 1.1
- GBA EC50 Ratio (human Y2 receptor [2]): 1.2
- food intake suppression rate (%) (male C57EL/6J mice): 21%

Substance: Ac-[D-Pro24, Pya(4)26, Cha27,36, Aib28,31, Lys30]-PYY(23-36) [compound No. 138]
- RBA IC50 Ratio (human Y2 receptor [1]): 1.8
- GBA EC50 Ratio (human Y2 receptor [2]): 1.3
- food intake suppression rate (%) (male C57EL/6J mice): 38%

Substance: Ac-[D-Pro24, Pya(4)26, Cha27,36, Aib28, Lys30, D-Iva31]-PYY(23-36) (Ac-S[dP]R[4Pal][Cha][Aib]NK[dIva]TRQR[Cha]-NH2; SMILES CC[C@@](C)(NC(=O)[C@H](CCCCN)NC(=O)[C@H](CC(N)=O)NC(=O)C(C)(C)NC(=O)[C@H](CC1CCCCC1)NC(=O)[C@H](Cc1ccncc1)NC(=O)[C@H](CCCNC(=N)N)NC(=O)[C@H]1CCCN1C(=O)[C@H](CO)NC(C)=O)C(=O)N[C@H](C(=O)N[C@@H](CCCNC(=N)N)C(=O)N[C@@H](CCC(N)=O)C(=O)N[C@@H](CCCNC(=N)N)C(=O)N[C@@H](CC1CCCCC1)C(N)=O)[C@@H](C)O) [compound No. 232]
- RBA IC50 Ratio (human Y2 receptor [1]): 0.55
- GBA EC50 Ratio (human Y2 receptor [2]): 1.6
- food intake suppression rate (%) (male C57EL/6J mice): 34%

Substance: Ac-[D-Pro24, Pya(4)26, Cha27,36, Iva28, Lys30, Aib31]-PYY(23-36) (Ac-S[dP]R[4Pal][Cha][Iva]NK[Aib]TRQR[Cha]-NH2; SMILES CC[C@](C)(NC(=O)[C@H](CC1CCCCC1)NC(=O)[C@H](Cc1ccncc1)NC(=O)[C@H](CCCNC(=N)N)NC(=O)[C@H]1CCCN1C(=O)[C@H](CO)NC(C)=O)C(=O)N[C@@H](CC(N)=O)C(=O)N[C@@H](CCCCN)C(=O)NC(C)(C)C(=O)N[C@H](C(=O)N[C@@H](CCCNC(=N)N)C(=O)N[C@@H](CCC(N)=O)C(=O)N[C@@H](CCCNC(=N)N)C(=O)N[C@@H](CC1CCCCC1)C(N)=O)[C@@H](C)O) [compound No. 233]
- RBA IC50 Ratio (human Y2 receptor [1]): 0.33
- GBA EC50 Ratio (human Y2 receptor [2]): 1.2
- food intake suppression rate (%) (male C57EL/6J mice): 36%

Substance: Ac-[D-Pro24, Pya(4)26, Cha27,36, Iva28, Lys30, D-Iva31]-PYY(23-36) (Ac-S[dP]R[4Pal][Cha][Iva]NK[dIva]TRQR[Cha]-NH2; SMILES CC[C@@](C)(NC(=O)[C@H](CCCCN)NC(=O)[C@H](CC(N)=O)NC(=O)[C@](C)(CC)NC(=O)[C@H](CC1CCCCC1)NC(=O)[C@H](Cc1ccncc1)NC(=O)[C@H](CCCNC(=N)N)NC(=O)[C@H]1CCCN1C(=O)[C@H](CO)NC(C)=O)C(=O)N[C@H](C(=O)N[C@@H](CCCNC(=N)N)C(=O)N[C@@H](CCC(N)=O)C(=O)N[C@@H](CCCNC(=N)N)C(=O)N[C@@H](CC1CCCCC1)C(N)=O)[C@@H](C)O) [compound No. 249]
- RBA IC50 Ratio (human Y2 receptor [1]): 0.36
- GBA EC50 Ratio (human Y2 receptor [2]): 0.67
- food intake suppression rate (%) (male C57EL/6J mice): 39%

Substance: Ac-[D-Pro24, Pya(4)26, Cha27, Aib28,31, Lys30, Phe(2,6-Me2)36]-PYY(23-36) (Ac-S[dP]R[4Pal][Cha][Aib]NK[Aib]TRQR[Phe(2,6-Me2)]-NH2; SMILES CC(=O)N[C@@H](CO)C(=O)N1CCC[C@@H]1C(=O)N[C@@H](CCCNC(=N)N)C(=O)N[C@@H](Cc1ccncc1)C(=O)N[C@@H](CC1CCCCC1)C(=O)NC(C)(C)C(=O)N[C@@H](CC(N)=O)C(=O)N[C@@H](CCCCN)C(=O)NC(C)(C)C(=O)N[C@H](C(=O)N[C@@H](CCCNC(=N)N)C(=O)N[C@@H](CCC(N)=O)C(=O)N[C@@H](CCCNC(=N)N)C(=O)N[C@@H](Cc1c(C)cccc1C)C(N)=O)[C@@H](C)O) [compound No. 329]
- RBA IC50 Ratio (human Y2 receptor [1]): 0.52
- GBA EC50 Ratio (human Y2 receptor [2]): 0.59
- food intake suppression rate (%) (male C57EL/6J mice): 51%

Substance: Ac-[D-Pro24, Pya(4)26, Nal(2)27, Aib28,31, Lys30, Cha36]-PYY(23-36) (Ac-S[dP]R[4Pal][2Nal][Aib]NK[Aib]TRQR[Cha]-NH2; SMILES CC(=O)N[C@@H](CO)C(=O)N1CCC[C@@H]1C(=O)N[C@@H](CCCNC(=N)N)C(=O)N[C@@H](Cc1ccncc1)C(=O)N[C@@H](Cc1ccc2ccccc2c1)C(=O)NC(C)(C)C(=O)N[C@@H](CC(N)=O)C(=O)N[C@@H](CCCCN)C(=O)NC(C)(C)C(=O)N[C@H](C(=O)N[C@@H](CCCNC(=N)N)C(=O)N[C@@H](CCC(N)=O)C(=O)N[C@@H](CCCNC(=N)N)C(=O)N[C@@H](CC1CCCCC1)C(N)=O)[C@@H](C)O) [compound No. 307]
- RBA IC50 Ratio (human Y2 receptor [1]): 7.2
- GBA EC50 Ratio (human Y2 receptor [2]): 4.0
- food intake suppression rate (%) (male C57EL/6J mice): 22%

Substance: Ac-[Glu23, D-Hyp24, Cha27,28,36, Lys30, Aib31]-PYY(23-36) (Ac-E[dHyp]RH[Cha][Cha]NK[Aib]TRQR[Cha]-NH2; SMILES CC(=O)N[C@@H](CCC(=O)O)C(=O)N1C[C@@H](O)C[C@@H]1C(=O)N[C@@H](CCCNC(=N)N)C(=O)N[C@@H](Cc1c[nH]cn1)C(=O)N[C@@H](CC1CCCCC1)C(=O)N[C@@H](CC1CCCCC1)C(=O)N[C@@H](CC(N)=O)C(=O)N[C@@H](CCCCN)C(=O)NC(C)(C)C(=O)N[C@H](C(=O)N[C@@H](CCCNC(=N)N)C(=O)N[C@@H](CCC(N)=O)C(=O)N[C@@H](CCCNC(=N)N)C(=O)N[C@@H](CC1CCCCC1)C(N)=O)[C@@H](C)O) [compound No. 204]
- RBA IC50 Ratio (human Y2 receptor [1]): 0.8
- GBA EC50 Ratio (human Y2 receptor [2]): 1.3
- food intake suppression rate (%) (male C57EL/6J mice): 16%

Substance: Ac-[Glu23, D-Hyp24, Iva25, Pya(4)26, Cha27,36, Leu(Me)28, Lys30, Aib31]-PYY(23-36) (Ac-E[dHyp][Iva][4Pal][Cha][tBuAla]NK[Aib]TRQR[Cha]-NH2; SMILES CC[C@](C)(NC(=O)[C@H]1C[C@H](O)CN1C(=O)[C@H](CCC(=O)O)NC(C)=O)C(=O)N[C@@H](Cc1ccncc1)C(=O)N[C@@H](CC1CCCCC1)C(=O)N[C@@H](CC(C)(C)C)C(=O)N[C@@H](CC(N)=O)C(=O)N[C@@H](CCCCN)C(=O)NC(C)(C)C(=O)N[C@H](C(=O)N[C@@H](CCCNC(=N)N)C(=O)N[C@@H](CCC(N)=O)C(=O)N[C@@H](CCCNC(=N)N)C(=O)N[C@@H](CC1CCCCC1)C(N)=O)[C@@H](C)O) [compound No. 351]
- RBA IC50 Ratio (human Y2 receptor [1]): 1.2
- GBA EC50 Ratio (human Y2 receptor [2]): 1.9
- food intake suppression rate (%) (male C57EL/6J mice): 27%

Substance: Ac-[Glu23, D-Pro24, Iva25, Pya(4)26, Cha27,36, Aib28,31, Lys30]-PYY(23-36) (Ac-E[dP][Iva][4Pal][Cha][Aib]NK[Aib]TRQR[Cha]-NH2; SMILES CC[C@](C)(NC(=O)[C@H]1CCCN1C(=O)[C@H](CCC(=O)O)NC(C)=O)C(=O)N[C@@H](Cc1ccncc1)C(=O)N[C@@H](CC1CCCCC1)C(=O)NC(C)(C)C(=O)N[C@@H](CC(N)=O)C(=O)N[C@@H](CCCCN)C(=O)NC(C)(C)C(=O)N[C@H](C(=O)N[C@@H](CCCNC(=N)N)C(=O)N[C@@H](CCC(N)=O)C(=O)N[C@@H](CCCNC(=N)N)C(=O)N[C@@H](CC1CCCCC1)C(N)=O)[C@@H](C)O) [compound No. 322]
- RBA IC50 Ratio (human Y2 receptor [1]): 6.1
- GBA EC50 Ratio (human Y2 receptor [2]): 2.8
- food intake suppression rate (%) (male C57EL/6J mice): 31%

Substance: Ac-[Glu23, D-Pro24, Pya(4)26, Cha27,36, Leu(Me)28, Lys30, Aib31]-PYY(23-36) (Ac-E[dP]R[4Pal][Cha][tBuAla]NK[Aib]TRQR[Cha]-NH2; SMILES CC(=O)N[C@@H](CCC(=O)O)C(=O)N1CCC[C@@H]1C(=O)N[C@@H](CCCNC(=N)N)C(=O)N[C@@H](Cc1ccncc1)C(=O)N[C@@H](CC1CCCCC1)C(=O)N[C@@H](CC(C)(C)C)C(=O)N[C@@H](CC(N)=O)C(=O)N[C@@H](CCCCN)C(=O)NC(C)(C)C(=O)N[C@H](C(=O)N[C@@H](CCCNC(=N)N)C(=O)N[C@@H](CCC(N)=O)C(=O)N[C@@H](CCCNC(=N)N)C(=O)N[C@@H](CC1CCCCC1)C(N)=O)[C@@H](C)O) [compound No. 169]
- RBA IC50 Ratio (human Y2 receptor [1]): 0.48
- GBA EC50 Ratio (human Y2 receptor [2]): 0.86
- food intake suppression rate (%) (male C57EL/6J mice): 55%
